# Source: the Immune Epitope Database (IEDB)
# Tests used:
# [1] = biological target: HLA-B*44:03; test: IEDB peptide-MHC binding, purified MHC/competitive/radioactivity; filed as Kd, often an IC50 or EC50 that approximates it; ≥ and ≤ were set here for values at or beyond the usual limits of such assays
# [2] = biological target: HLA-B*40:01; test: as above
# [3] = biological target: HLA-A*02:01; test: IEDB peptide-MHC binding, purified MHC/competitive/fluorescence; ≥ and ≤ were set here for values at or beyond the usual limits of such assays
# [4] = biological target: HLA-B*44:02; test: IEDB peptide-MHC binding, purified MHC/competitive/radioactivity; filed as Kd, often an IC50 or EC50 that approximates it; ≥ and ≤ were set here for values at or beyond the usual limits of such assays
# [5] = biological target: HLA-A*01:01; test: as above
# [6] = biological target: HLA-A*26:01; test: as above
# [7] = biological target: HLA-A*32:01; test: as above
# [8] = biological target: HLA-A*30:02; test: as above
# [9] = biological target: HLA-A*24:02; test: as above; details: source organism: Homo sapiens
# [10] = biological target: HLA-A*69:01; test: IEDB peptide-MHC binding, purified MHC/direct/fluorescence; filed as Kd, often an IC50 or EC50 that approximates it; ≥ and ≤ were set here for values at or beyond the usual limits of such assays
# [11] = biological target: HLA-B*07:02; test: as above
# [12] = biological target: HLA-B*40:01; test: as above
# [13] = biological target: HLA-A*02:01; test: as above; details: source organism: Yersinia pestis
# [14] = biological target: HLA-B*15:01; test: as above; details: source organism: Yersinia pestis
# [15] = biological target: HLA-B*53:01; test: IEDB peptide-MHC binding, purified MHC/competitive/radioactivity; filed as Kd, often an IC50 or EC50 that approximates it; ≥ and ≤ were set here for values at or beyond the usual limits of such assays; details: source organism: Dengue virus 4 Philippines/H241/1956
# [16] = biological target: HLA-B*35:01; test: as above
# [17] = biological target: HLA-A*11:01; test: IEDB peptide-MHC binding, purified MHC/direct/fluorescence; filed as Kd, often an IC50 or EC50 that approximates it; ≥ and ≤ were set here for values at or beyond the usual limits of such assays
# [18] = biological target: HLA-B*58:01; test: as above; details: source organism: SARS-CoV1
# [19] = biological target: HLA-A*02:03; test: IEDB peptide-MHC binding, purified MHC/competitive/radioactivity; filed as Kd, often an IC50 or EC50 that approximates it; ≥ and ≤ were set here for values at or beyond the usual limits of such assays; details: source organism: Vaccinia virus WR
# [20] = biological target: HLA-A*02:02; test: as above; details: source organism: Vaccinia virus WR
# [21] = biological target: HLA-A*02:06; test: as above; details: source organism: Vaccinia virus WR
# [22] = biological target: HLA-A*01:01; test: IEDB peptide-MHC binding, purified MHC/direct/fluorescence; filed as Kd, often an IC50 or EC50 that approximates it; ≥ and ≤ were set here for values at or beyond the usual limits of such assays; details: source organism: Tobacco leaf curl Zimbabwe virus
# [23] = source organism: Dengue virus 2 Jamaica/1409/1983
# [24] = source organism: Zaire ebolavirus
# [25] = source organism: Dengue virus 3 Martinique/1243/1999
# [26] = source organism: Vaccinia virus WR
# [27] = source organism: Dengue virus 1 Brazil/97-11/1997
# [28] = source organism: Sudan ebolavirus
# [29] = source organism: Human herpesvirus 4 strain B95-8
# [30] = source organism: Dengue virus 4 Philippines/H241/1956
# [31] = source organism: Mycobacterium tuberculosis
sequence,measurement,setting,value
EEYTDYMPSM,Kd,[1]; [23],116 nM
same,Kd,[2]; [23],833 nM
AGPPKAENT,IC50,[3]; [24],66600 nM
EEQTLTILI,Kd,[1]; [23],146 nM
same,Kd,[4]; [23],14 nM
VTYLALIATF,Kd,[5]; [25],≥ 50800 nM
same,Kd,[6]; [25],≥ 21200 nM
LVQYIKFIF,Kd,[7]; [26],19.8 nM
GESSPNPTI,Kd,[4]; [23],83.5 nM
same,Kd,[2]; [23],8.75 nM
KLELKGMSY,Kd,[5]; [25],391 nM
same,Kd,[8]; [25],≥ 76900 nM
EDMLAVWNRV,Kd,[7]; [23],219 nM
QERGKSLLF,Kd,[1]; [27],117 nM
DFLLRRWGG,IC50,[3]; [28],56400 nM
YLFSQNYSF,Kd,[7]; [26],1.39 nM
LYSACFWWL,Kd,[9],28 nM
ILLKIVTQF,Kd,[7]; source organism: Dengue virus 4 Dominica/814669/1981,412 nM
YIMYNILPI,Kd,[7]; [26],39.4 nM
TLARGFPFV,Kd,[10]; source organism: West Nile virus,≤ 1 nM
APEFVTAAA,Kd,[11]; source organism: Mycobacterium tuberculosis F11,933 nM
GEDAPCKIPF,Kd,[4]; [25],59.2 nM
QEHDCLQIV,Kd,[12]; source organism: Mammarenavirus juninense,1470 nM
FMHSAAPIT,Kd,[13],216 nM
same,Kd,[14],1920 nM
same,Kd,[10]; source organism: Yersinia pestis,7660 nM
VPAPAGPIV,Kd,[11]; [29],23.4 nM
same,Kd,[10]; [29],442 nM
FEKQLGQIM,Kd,[4]; [27],2550 nM
same,Kd,[2]; [27],558 nM
EVEDYGFGMF,Kd,[6]; [30],72.1 nM
FLQGAKWYL,Kd,[10]; [31],465 nM
QLVCKDHLA,IC50,[3]; [28],19600 nM
LATGPVLTLW,Kd,[15],44.8 nM
VPLLAIGCY,Kd,[16]; [23],168 nM
LVCGLRQLA,IC50,[3]; [28],7660 nM
KTDWLPMTV,Kd,[5]; source organism: Dengue virus 3 Sri Lanka/1266/2000,56.5 nM
MSYSMCTGKF,Kd,[5]; [23],18000 nM
same,Kd,[8]; [23],1100 nM
same,Kd,[6]; [23],79.4 nM
TTTGEIGAI,Kd,[6]; [25],5260 nM
ATALILVSF,Kd,[7]; [26],1.42 nM
RTMFLFVFR,Kd,[17]; [31],94.6 nM
MLVTPSMTM,Kd,[16]; [25],3840 nM
SALNHTKKW,Kd,[18],350 nM
same,Kd,[17]; source organism: SARS-CoV1,17100 nM
TLEDDRERL,IC50,[3]; source organism: Variola virus,29900 nM
VETPIRNEW,Kd,[12]; source organism: Influenza A virus (A/Moscow/346/2003(H3N2)),≥ 20000 nM
YLSKEDRII,Kd,[19],435 nM
same,Kd,[20],305 nM
same,Kd,[21],10500 nM
AAVLMLVAHY,Kd,[8]; [27],508 nM
VMCSISLTY,Kd,[7]; [26],10.8 nM
LETKGVERL,Kd,[2]; [25],21.7 nM
ILANERYRSA,Kd,[19],18.3 nM
same,Kd,[20],104 nM
same,Kd,[21],7800 nM
VRLHPLART,IC50,[3]; [24],≥ 331000 nM
KLGEFYNQMM,IC50,[3]; source organism: Influenza B virus,2820 nM
EVPFCSHHF,Kd,[6]; [30],6630 nM
CASSSDWFY,Kd,[22],2.1 nM
LAWIPYFGP,IC50,[3]; [24],17800 nM
VTLNISSKF,Kd,[7]; [26],10.6 nM
GVVTTSGTY,Kd,[8]; [27],169 nM
same,Kd,[6]; [27],403 nM
SEAVNDSRFW,Kd,[1]; [30],41.4 nM
same,Kd,[4]; [30],11.4 nM
MHNQNALVC,IC50,[3]; [28],≥ 92000 nM
STEGRRVGV,IC50,[3]; [28],≥ 210000 nM
SMMVILPDKI,Kd,[19],19.2 nM
same,Kd,[20],28.3 nM
same,Kd,[21],5.67 nM
MESEGIFSP,Kd,[2]; source organism: Dengue virus 1 Singapore/S275/1990,2270 nM
LAIMAVFKM,Kd,[16]; [30],22.2 nM
GVEVRYIDI,Kd,[19],≥ 45300 nM
same,Kd,[20],12000 nM
same,Kd,[21],10200 nM
ELIMKDGRKL,Kd,[6]; [25],12500 nM
